# Laboratory results published in IntAct's records for PubMed 23665169.
# Target: stk25_human STK25 (UniProt O00506)
# Sequence (O00506 whole entry, looked up): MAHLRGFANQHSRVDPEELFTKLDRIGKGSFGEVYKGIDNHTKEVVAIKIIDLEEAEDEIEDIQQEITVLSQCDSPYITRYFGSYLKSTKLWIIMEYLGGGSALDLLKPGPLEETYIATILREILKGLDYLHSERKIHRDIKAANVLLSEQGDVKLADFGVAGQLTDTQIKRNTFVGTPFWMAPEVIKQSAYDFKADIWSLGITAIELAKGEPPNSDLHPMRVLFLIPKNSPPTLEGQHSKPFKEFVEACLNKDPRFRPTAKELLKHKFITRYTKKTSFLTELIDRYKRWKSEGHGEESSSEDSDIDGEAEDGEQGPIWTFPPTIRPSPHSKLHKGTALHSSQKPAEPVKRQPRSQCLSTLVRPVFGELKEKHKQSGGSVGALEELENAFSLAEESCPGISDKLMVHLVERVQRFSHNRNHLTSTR
# Programmed cell death protein 10 (Homo sapiens), Q9BUL8 F76D;L80D;M83D, sequence (Q9BUL8 whole entry F76D/L80D/M83D): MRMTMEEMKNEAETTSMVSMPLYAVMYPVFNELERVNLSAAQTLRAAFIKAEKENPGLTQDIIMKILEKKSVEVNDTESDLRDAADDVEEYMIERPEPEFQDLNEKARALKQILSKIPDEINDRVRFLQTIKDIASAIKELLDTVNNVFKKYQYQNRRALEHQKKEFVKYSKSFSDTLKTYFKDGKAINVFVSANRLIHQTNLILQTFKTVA
substance,measurement,value
"Programmed cell death protein 10 (Homo sapiens), Q9BUL8 F76D;L80D;M83D",effect of a mutation on the interaction,decreasing interaction strength
